Experimental data as given in patent US20060257938A1, “Method of screening for drugs that block ligand binding to a lipid binding protein” (priority 2005, published 2006).
“And” between values parts separate entries of the source, which are not always exact repeats. Identical values can stand only once.

Experiments:
Type in all cases: binding
[1] = Probe fluorescence ratio response to palmitic acid relative to ADIFAB2; details: response relative to ADIFAB2
Summary of the method: (§1)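 Each fatty acid's response was expressed relative to ADIFAB2, the rI-FABP-L72A probe, as ΔR/ΔRreference. ΔR is the change in the background-corrected two-wavelength intensity ratio R=Fλ1/Fλ2 from its analyte-free baseline R0. Emission was read near about 420-480 nm for unbound and about 495-580 nm for FFA-bound probe.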

[2] = Probe fluorescence ratio response to oleic acid relative to ADIFAB2; details: response relative to ADIFAB2
Summary of the method: as §1

[3] = Probe fluorescence ratio response to arachidonic acid relative to ADIFAB2; details: arachidonic acid; response relative to ADIFAB2
Summary of the method: as §1

[4] = Probe fluorescence ratio response to linolenic acid relative to ADIFAB2; details: response relative to ADIFAB2
Summary of the method: as §1

[5] = Probe fluorescence ratio response to linoleic acid relative to ADIFAB2; details: response relative to ADIFAB2
Summary of the method: as §1

B1: 17V, 72A (protein, listed as Rattus norvegicus)
chain: AFDGTWKVDRNENYEKVMEKMGINVVKRKLGAHDNLKLTITQEGNKFTVKESSNFRNIDVVFELGVDFAYSAADGTELTGTWTMEGNKLVGKFKRVDNGKELIAVREISGNELIQTYTYEGVEAKRIFKKE
modifications: PEPTIDE (1)...(131) wild-type rat intestinal fatty acid binding protein
In the case of B1, the “DR/DR PA” value [1] is reported as 0.31 and 0.308, the “DR/DR OA” value [2] is reported as 0.56 and 0.558 and the “DR/DR AA” value [3] is reported as 0.64 and 0.639. For the same molecule, the “DR/DR LNA” value [4] was 0.59 and 0.586 and the “DR/DR LA” value [5] was 0.55 and 0.549.

B2: 23H1, 72A (protein, listed as Rattus norvegicus)
chain: AFDGTWKVDRNENYEKFMEKMGHNVVKRKLGAHDNLKLTITQEGNKFTVKESSNFRNIDVVFELGVDFAYSAADGTELTGTWTMEGNKLVGKFKRVDNGKELIAVREISGNELIQTYTYEGVEAKRIFKKE
modifications: PEPTIDE (1)...(131) wild-type rat intestinal fatty acid binding protein
In the case of B2, the “DR/DR PA” value [1] is reported as 0.13, the “DR/DR OA” value [2] is reported as 0.11 and the “DR/DR AA” value [3] is reported as 0.16. For the same molecule, the “DR/DR LNA” value [4] was 0.17 and the “DR/DR LA” value [5] was 0.13.

B3: 17W, 72A (protein, listed as Rattus norvegicus)
chain: AFDGTWKVDRNENYEKWMEKMGINVVKRKLGAHDNLKLTITQEGNKFTVKESSNFRNIDVVFELGVDFAYSAADGTELTGTWTMEGNKLVGKFKRVDNGKELIAVREISGNELIQTYTYEGVEAKRIFKKE
modifications: PEPTIDE (1)...(131) wild-type rat intestinal fatty acid binding protein
In the case of B3, the “DR/DR PA” value [1] is reported as 1.07 and 1.067, the “DR/DR OA” value [2] is reported as 1.24 and 1.241 and the “DR/DR AA” value [3] is reported as 1.42 and 1.421. For the same molecule, the “DR/DR LNA” value [4] was 1.61 and 1.611 and the “DR/DR LA” value [5] was 1.42 and 1.416.

B4: 23N1, 72A (protein, listed as Rattus norvegicus)
chain: AFDGTWKVDRNENYEKFMEKMGNNVVKRKLGAHDNLKLTITQEGNKFTVKESSNFRNIDVVFELGVDFAYSAADGTELTGTWTMEGNKLVGKFKRVDNGKELIAVREISGNELIQTYTYEGVEAKRIFKKE
modifications: PEPTIDE (1)...(131) wild-type rat intestinal fatty acid binding protein
With B4 the “DR/DR PA” value [1] was 0.10, the “DR/DR OA” value [2] was 0.12 and the “DR/DR AA” value [3] was 0.12. For the same molecule, the “DR/DR LNA” value [4] was 0.13 and the “DR/DR LA” value [5] was 0.13.

B5: 23T1, 72A (protein, listed as Rattus norvegicus)
chain: AFDGTWKVDRNENYEKFMEKMGTNVVKRKLGAHDNLKLTITQEGNKFTVKESSNFRNIDVVFELGVDFAYSAADGTELTGTWTMEGNKLVGKFKRVDNGKELIAVREISGNELIQTYTYEGVEAKRIFKKE
modifications: PEPTIDE (1)...(131) wild-type rat intestinal fatty acid binding protein
For B5, the “DR/DR PA” value [1] was 0.24, the “DR/DR OA” value [2] was 0.19 and the “DR/DR AA” value [3] was 0.22. The “DR/DR LNA” value [4] was 0.21 and the “DR/DR LA” value [5] was 0.33.

B6: 23P1, 72A (protein, listed as Rattus norvegicus)
chain: AFDGTWKVDRNENYEKFMEKMGPNVVKRKLGAHDNLKLTITQEGNKFTVKESSNFRNIDVVFELGVDFAYSAADGTELTGTWTMEGNKLVGKFKRVDNGKELIAVREISGNELIQTYTYEGVEAKRIFKKE
modifications: PEPTIDE (1)...(131) wild-type rat intestinal fatty acid binding protein
In the case of B6, the “DR/DR PA” value [1] is reported as 0.64, the “DR/DR OA” value [2] is reported as 1.24 and the “DR/DR AA” value [3] is reported as 1.25. The “DR/DR LNA” value [4] was 1.38 and the “DR/DR LA” value [5] was 1.36.

B7: 23W1, 72A (protein, listed as Rattus norvegicus)
chain: AFDGTWKVDRNENYEKFMEKMGWNVVKRKLGAHDNLKLTITQEGNKFTVKESSNFRNIDVVFELGVDFAYSAADGTELTGTWTMEGNKLVGKFKRVDNGKELIAVREISGNELIQTYTYEGVEAKRIFKKE
modifications: PEPTIDE (1)...(131) wild-type rat intestinal fatty acid binding protein
With B7 the “DR/DR PA” value [1] was 0.49, the “DR/DR OA” value [2] was 0.45 and the “DR/DR AA” value [3] was 0.62. The “DR/DR LNA” value [4] was 0.96 and the “DR/DR LA” value [5] was 0.79.

B8: 17Y, 72A (protein, listed as Rattus norvegicus)
chain: AFDGTWKVDRNENYEKYMEKMGINVVKRKLGAHDNLKLTITQEGNKFTVKESSNFRNIDVVFELGVDFAYSAADGTELTGTWTMEGNKLVGKFKRVDNGKELIAVREISGNELIQTYTYEGVEAKRIFKKE
modifications: PEPTIDE (1)...(131) wild-type rat intestinal fatty acid binding protein
For B8, the “DR/DR PA” value [1] was 0.50, the “DR/DR OA” value [2] was 0.73 and 0.732 and the “DR/DR AA” value [3] was 0.73 and 0.729. The “DR/DR LNA” value [4] was 0.81 and 0.806 and the “DR/DR LA” value [5] was 0.71 and 0.712.

B9: 23Y1, 72A (protein, listed as Rattus norvegicus)
chain: AFDGTWKVDRNENYEKFMEKMGYNVVKRKLGAHDNLKLTITQEGNKFTVKESSNFRNIDVVFELGVDFAYSAADGTELTGTWTMEGNKLVGKFKRVDNGKELIAVREISGNELIQTYTYEGVEAKRIFKKE
modifications: PEPTIDE (1)...(131) wild-type rat intestinal fatty acid binding protein
For B9, the “DR/DR PA” value [1] was 0.28, the “DR/DR OA” value [2] was 0.41 and the “DR/DR AA” value [3] was 0.49. For the same molecule, the “DR/DR LNA” value [4] was 0.44 and the “DR/DR LA” value [5] was 0.44.

B10: 18Q, 72A (protein, listed as Rattus norvegicus)
chain: AFDGTWKVDRNENYEKFQEKMGINVVKRKLGAHDNLKLTITQEGNKFTVKESSNFRNIDVVFELGVDFAYSAADGTELTGTWTMEGNKLVGKFKRVDNGKELIAVREISGNELIQTYTYEGVEAKRIFKKE
modifications: PEPTIDE (1)...(131) wild-type rat intestinal fatty acid binding protein
With B10 the “DR/DR PA” value [1] was 0.09, the “DR/DR OA” value [2] was 0.08 and the “DR/DR AA” value [3] was 0.09. For the same molecule, the “DR/DR LNA” value [4] was 0.13 and the “DR/DR LA” value [5] was 0.11.

B11: 23F2, 72A (protein, listed as Rattus norvegicus)
chain: AFDGTWKVDRNENYEKFMEKMGFNVVKRKLGAHDNLKLTITQEGNKFTVKESSNFRNIDVVFELGVDFAYSAADGTELTGTWTMEGNKLVGKFKRVDNGKELIAVREISGNELIQTYTYEGVEAKRIFKKE
modifications: PEPTIDE (1)...(131) wild-type rat intestinal fatty acid binding protein
For B11, the “DR/DR PA” value [1] was 0.12, the “DR/DR OA” value [2] was 0.20 and the “DR/DR AA” value [3] was 0.22. The “DR/DR LNA” value [4] was 0.17 and the “DR/DR LA” value [5] was 0.19.

B12: 23K1, 72A (protein, listed as Rattus norvegicus)
chain: AFDGTWKVDRNENYEKFMEKMGKNVVKRKLGAHDNLKLTITQEGNKFTVKESSNFRNIDVVFELGVDFAYSAADGTELTGTWTMEGNKLVGKFKRVDNGKELIAVREISGNELIQTYTYEGVEAKRIFKKE
modifications: PEPTIDE (1)...(131) wild-type rat intestinal fatty acid binding protein
For B12, the “DR/DR PA” value [1] was 0.08, the “DR/DR OA” value [2] was 0.13 and the “DR/DR AA” value [3] was 0.13. The “DR/DR LNA” value [4] was 0.13 and the “DR/DR LA” value [5] was 0.14.

B13: 23V2, 72A (protein, listed as Rattus norvegicus)
chain: AFDGTWKVDRNENYEKFMEKMGVNVVKRKLGAHDNLKLTITQEGNKFTVKESSNFRNIDVVFELGVDFAYSAADGTELTGTWTMEGNKLVGKFKRVDNGKELIAVREISGNELIQTYTYEGVEAKRIFKKE
modifications: PEPTIDE (1)...(131) wild-type rat intestinal fatty acid binding protein
With B13 the “DR/DR PA” value [1] was 1.48, the “DR/DR OA” value [2] was 1.56 and the “DR/DR AA” value [3] was 1.46. The “DR/DR LNA” value [4] was 1.35 and the “DR/DR LA” value [5] was 1.73.

B14: 21W, 72A (protein, listed as Rattus norvegicus)
chain: AFDGTWKVDRNENYEKFMEKWGINVVKRKLGAHDNLKLTITQEGNKFTVKESSNFRNIDVVFELGVDFAYSAADGTELTGTWTMEGNKLVGKFKRVDNGKELIAVREISGNELIQTYTYEGVEAKRIFKKE
modifications: PEPTIDE (1)...(131) wild-type rat intestinal fatty acid binding protein
With B14 the “DR/DR PA” value [1] was 1.45, the “DR/DR OA” value [2] was 3.02 and the “DR/DR AA” value [3] was 3.70. The “DR/DR LNA” value [4] was 2.40 and the “DR/DR LA” value [5] was 2.43.

B15: 23L3, 72A (protein, listed as Rattus norvegicus)
chain: AFDGTWKVDRNENYEKFMEKMGLNVVKRKLGAHDNLKLTITQEGNKFTVKESSNFRNIDVVFELGVDFAYSAADGTELTGTWTMEGNKLVGKFKRVDNGKELIAVREISGNELIQTYTYEGVEAKRIFKKE
modifications: PEPTIDE (1)...(131) wild-type rat intestinal fatty acid binding protein
In the case of B15, the “DR/DR PA” value [1] is reported as 0.93, the “DR/DR OA” value [2] is reported as 1.06 and the “DR/DR AA” value [3] is reported as 1.17. For the same molecule, the “DR/DR LNA” value [4] was 1.03 and the “DR/DR LA” value [5] was 1.04.

B16: 23R3, 72A (protein, listed as Rattus norvegicus)
chain: AFDGTWKVDRNENYEKFMEKMGRNVVKRKLGAHDNLKLTITQEGNKFTVKESSNFRNIDVVFELGVDFAYSAADGTELTGTWTMEGNKLVGKFKRVDNGKELIAVREISGNELIQTYTYEGVEAKRIFKKE
modifications: PEPTIDE (1)...(131) wild-type rat intestinal fatty acid binding protein
For B16, the “DR/DR PA” value [1] was 0.10, the “DR/DR OA” value [2] was 0.12 and the “DR/DR AA” value [3] was 0.14. The “DR/DR LNA” value [4] was 0.14 and the “DR/DR LA” value [5] was 0.14.

B17: 31C1, 72A (protein, listed as Rattus norvegicus)
chain: AFDGTWKVDRNENYEKFMEKMGINVVKRKLCAHDNLKLTITQEGNKFTVKESSNFRNIDVVFELGVDFAYSAADGTELTGTWTMEGNKLVGKFKRVDNGKELIAVREISGNELIQTYTYEGVEAKRIFKKE
modifications: PEPTIDE (1)...(131) wild-type rat intestinal fatty acid binding protein
With B17 the “DR/DR PA” value [1] was 0.23, the “DR/DR OA” value [2] was 0.30 and the “DR/DR AA” value [3] was 0.32. The “DR/DR LNA” value [4] was 0.36 and the “DR/DR LA” value [5] was 0.36.
